In paper PMC3956856, “Interaction of Kinase-Interaction-Motif Protein Tyrosine Phosphatases with the Mitogen-Activated Protein Kinase ERK2” (PLoS ONE, 2014):

Key:
ERK2 [1] = biological target: T1, ERK2 (Rattus norvegicus, UniProt P63086); conditions: [17], cited from earlier work; for Kd: ERK2, values previously published, ref [14], [15], [18]; for tighter binding to ERK2 than to p38α: HePTP residues 15–339 and HePTP KIM-peptide residues 15–31, ref [16]
T1 construct: gene Mapk1; made in house
Excerpt: Over the last years different groups, including ours, have studied the interaction of MAPK regulatory proteins, as well as substrates, with different MAPKs, especially ERK2, p38 and JNK [12]–[17]. However, while a plethora of cell biological data is available, much less systematic interaction data using quantitative methods, such as isothermal titration calorimetry (ITC), has been reported. This is of special interest, as recent studies have shown that while KIM-peptides derived from KIM-containing regulatory proteins and substrates readily discriminate between ERK2/p38 and JNK, they discr ... || We used ITC measurements to determine the binding affinity of STEP and PTPSL for unphosphorylated ERK2 ( Table 1; Figure S1). […] This complex has a ∼3-times lower Kd (tighter binding) than the next tightest complex, ERK2:PTPSL, and a nearly 70-fold greater affinity than the weakest complex, p38α:HePTP [15]. Like STEP, PTPSL binds ERK2 more tightly (∼3.5-fold) than p38α. We also tested peptides that include the kinase specificity s ... || Figure 3 Regulatory protein-MAPK interaction strengths. The binding strengths of each KIM-PTP (KIM peptides and KIM-containing MKBDs (in orange font), light blue; KIMKIS peptides, light purple; proteins, light pink) to p38α and ERK2 represented from weakest to tightest (largest Kd to smallest Kd) binding affinity; ‘^†’ indicates values previously published, [15], [17], [18]. KIM-PTP:MAPK complexes determined to be extended using SAXS written in normal text; KIM-PTP:MAPK complexes determined to be compact written in italics; *, compact nature of the ERK2-PTPSL complex determined by ...

ERK2 [2] = biological target: T1, ERK2; assay: Isothermal titration calorimetry with ERK2; assay type: binding
Procedure: The PTPSLKIM peptide (residues 331–348), STEPKIM (residues 213–229) and STEPKIMKIS (residues 213–256) were synthesized, HPLC purified and verified by mass spectrometry (MS) (>98% purity; Biosynthesis, Inc.). Expression and purification of ERK2 and PTPSLKIMKIS (residues 332–373) was carried out as previously described, [15]. PTPSL (residues 332–655, human), STEP (residues 213–539, mouse) and PSChimera (PTPSL residues 332–373 with STEP residues 257–539; gene synthesized by DNA 2.0) were expressed and purified using the protocol previously described in detail for STEPCAT (residues 244–539). The DUSP16 MAPK binding domain (residues 5–138, human) was expressed and purified as previously described. All purified proteins were stored at −80 °C until use at which point they were thawed and exchanged into the appropriate buffer using size exclusion chromatography (SEC; Superdex 75 26/60; GE Healthcare). The final protein buffer was dependent on the experiment performed. For ITC experiments, the final SEC purification was performed in ITC buffer (10 mM Tris pH 7.5, 150 mM NaCl, 0.1 mM EDTA, 0.5 mM TCEP); for SAXS experiments, the final SEC purification was performed in SAXS buffer (50 mM HEPES pH 6.8, 150 mM NaCl, 5 mM dithiothreitol). PTPSLKIM, STEPKIM and STEPKIMKIS peptides were solubilized in ITC buffer prior to ITC measurements.
ITC experiments were performed at 25 °C using a VP-ITC microcalorimeter (Microcal Inc.). Titrant (10 μL per injection) was injected into the sample cell over a period of 20 seconds with a 250 second interval between titrations to allow for complete equilibration and baseline recovery. 28 injections were delivered during each experiment and the solution in the sample cell was stirred at 307 rpm to ensure rapid mixing. To determine the thermodynamic parameters (ΔH, ΔS, ΔG) and binding constants (K) of the ERK2:PTPSLKIM, ERK2:PTPSL, ERK2:STEP and ERK2:PSChimera interactions, PTPSLKIM, PTPSL, STEP and PSChimera were titrated into ERK2. To determine the same parameters for the ERK2:STEPKIM, ERK2:PTPSLKIMKIS and ERK2:STEPKIMKIS interaction, ERK2 was titrated into the peptides. Titrants were chosen based on the amount of purified protein/peptide available for the experiment. For all titrations the concentrations were slightly varied to ensure independence of the Kd from the protein/peptide concentrations. Data were analyzed with a one-site binding model assuming a binding stoichiometry of 1∶1 using Origin 7.0 software. A nonlinear least-squares algorithm and the titrant and sample cell concentrations were used to fit the heat flow per injection to an equilibrium binding equation, providing values of the stoichiometry (n), change in enthalpy (ΔH) and binding constant (K). All data were repeated in triplicate.

p38α [3] = conditions: ref [14], cited from earlier work; for Kd: values previously published, [15], [17], [18]
Excerpt: We used ITC measurements to determine the binding affinity of STEP and PTPSL for unphosphorylated ERK2 ( Table 1; Figure S1). […] This complex has a ∼3-times lower Kd (tighter binding) than the next tightest complex, ERK2:PTPSL, and a nearly 70-fold greater affinity than the weakest complex, p38α:HePTP [15]. Like STEP, PTPSL binds ERK2 more tightly (∼3.5-fold) than p38α. We also tested peptides that include the kinase specificity s ... || We also generated a chimeric protein in which we fused the PTPSLKIMKIS to STEPCAT (PSchimera; Figure 1A ). […] Thus, they only adopt a single conformation when they bind their respective MAPKs. This is different from the MAPK-binding domains (MKBD) of MAPK phosphatases (MKP; dual specificity phosphatases; DUSPs), [26]. In MKPs, the KIM sequence is part of a stable, folded domain and thus adopts a single, ordered conformation in both the unbound and MAPK-bound states, [28]. […] Our ... || (+ 1 further places)

[4] = biological target: T2, extracellular signal-regulated kinase 2 (ERK2), unphosphorylated (UniProt P63086 1-358); assay: ITC; ERK2 titrated into STEPKIM, PTPSL KIMKIS or STEP KIMKIS in the cell; 25 °C; 10 mM Tris pH 7.5, 150 mM NaCl, 0.1 mM EDTA, 0.5 mM TCEP; one-site model; triplicate; conditions: both partners purified
T2 construct: ERK2 (extracellular signal-regulated kinase 2), unphosphorylated; also called MAPK; source: final SEC (Superdex 75 26/60)

[5] = biological target: T2, extracellular signal-regulated kinase 2 …; assay: ITC; PTPSLKIM, PTPSL, STEP or PSChimera titrated into ERK2 in the cell; 25 °C; 10 mM Tris pH 7.5, 150 mM NaCl, 0.1 mM EDTA, 0.5 mM TCEP; one-site model; triplicate; conditions: both partners purified
ERK2 [6] = biological target: T1, ERK2; conditions: ref [16], cited from earlier work
p38α [7] = conditions: NMR spectroscopy; ref [14]; cited from earlier work
Excerpt: Although there are a few structural differences between ERK2 and p38α in this region (e.g., the activation loop is six residues longer in ERK2), nearly all residues that that we sh ... || The KIM domains of KIM-PTPs are intrinsically disordered in solution [14], [15]. Thus, they only adopt a single conformation when they bind their respective MAPKs. This is different from the MAPK-binding domains (MKBD) of MAPK phosphatases (MKP; dual specificity phosphatases; DUSPs), [26]. In MKPs, the KIM sequence is part of a stable, folded domain and thus adopts a single, ordered conformation in both the unbound and MAPK-bound states, [28]. […] Our ...

[8] = ERK2:HePTP resting-state complex

HePTPKIMKIS: HePTP KIMKIS peptide, values previously published (VRLQERRGSNVALMLDVRSLGAVEPICSVNTPREVTLHFLRT)
Kd (ERK2 [1]): 679 ± 122 nM

HePTPKIM: HePTP KIM-peptide (residues 15–31) (TLSLGAAMTQPPPEKTP; KIM peptide; UniProt P35236 15-31, looked up, fragment) [reference compound]
differences in affinity of KIM peptides for ERK2 versus p38α (ERK2 [2]; KIM peptides of the KIM-PTPs): 4.0 | Kd (ERK2 [1]): 1280 ± 110 nM | tighter binding to ERK2 than to p38α (ERK2 [1]): ~4 times | Kd (p38α [3]): 5150 ± 1290 nM

B1: STEPKIM peptide (STEP residues 213-229) (peptide, UniProt P54830 213-229, looked up)
peptide: MGLQERRGSNVSLTLDM
notes: STEP (PTPN5, striatal enriched protein tyrosine phosphatase), residues 213-229 (KIM); mouse is stated for the STEP 213-539 construct; source: synthetic peptide (Biosynthesis, Inc.), HPLC purified, >98% purity
Kd [4]: 546 nM

B2: PS_(Chimera) (PTPSL residues 332-373 with STEP residues 257-539) (other, human | mouse, UniProt Q15256 332-373, looked up)
chain: GLQERRGSNVSLTLDMSSLGNIEPFVSIPTPREKVAMEYLQSASRVLRAEELHEKALDPFLLQAEFFEIPMNFVDPKEYDIPGLVRKNRYKTILPNPHSRVRLTSPDPEDPLSSYINANYIRGYSGEEKVYIATQGPIVSTVADFWRMVWQERTPIIVMITNIEEMNEKCTEYWPEEQVVHDGVEITVQKVIHTEDYRLRLISLRRGTEERSLKHYWFTSWPDQKTPDRAPPLLHLVREVEEAAQQEGPHCSPIIVHCSAGIGRTGCFIATSICCQQLRREGVVDILKTTCQLRQDRGGMIQTCEQYQFVHHAMSLYEKQLSLQS
notes: PTPSL (PTPRR), residues 332-373 (KIM and KIS); human is stated for the PTPSL 332-655 construct; STEP (PTPN5), residues 257-539 (catalytic domain); mouse is stated for the STEP 213-539 construct; Chimera of PTPSL KIMKIS fused to STEPCAT; source: gene synthesized by DNA 2.0; final SEC
relative binding to ERK2 (in words) (ERK2 [2]; ERK2, ITC): binds to ERK2 with about equal binding strength as STEP | TΔS (ERK2 [2]; unphosphorylated ERK2, ITC, 25 °C, 10 mM Tris pH 7.5, 150 mM NaCl, 0.1 mM EDTA, 0.5 mM TCEP, average and standard deviation, triplicate): -8.5 ± 0.7 kcal/mol | relative binding to p38α (in words) (p38α [3]): binds marginally more tightly to p38α than any of the WT-KIM-PTPs | Kd [5]: 47 nM | dH [5]: -18.5 kcal/mol

B3: STEP KIMKIS peptide (STEP residues 213-256) (peptide, UniProt P54830 213-256, looked up)
peptide: MGLQERRGSNVSLTLDMCTPGCNEEGFGYLVSPREESAHEYLLS
notes: STEP (PTPN5), residues 213-256 (KIM and KIS); mouse is stated for the STEP 213-539 construct; source: synthetic peptide (Biosynthesis, Inc.), HPLC purified, >98% purity
Kd [4]: 123 nM

B4: PTPSLKIM peptide (PTPSL residues 331-348) (peptide, UniProt Q15256 331-348, looked up)
peptide: IGLQERRGSNVSLTLDMS
notes: PTPSL/PTPBR7 (PTPRR, PTP STEP-like), residues 331-348 (KIM); human is stated for the PTPSL 332-655 construct; source: synthetic peptide (Biosynthesis, Inc.), HPLC purified, >98% purity
Kd [5]: 463 nM | dH [5]: -23.5 kcal/mol

B5: PTPSL KIMKIS (PTPSL residues 332-373) (peptide, UniProt Q15256 332-373, looked up)
chain: GLQERRGSNVSLTLDMSSLGNIEPFVSIPTPREKVAMEYLQS
notes: PTPSL/PTPBR7 (PTPRR), residues 332-373 (KIM and KIS); human is stated for the PTPSL 332-655 construct; Recombinant, not synthetic; source: final SEC
Kd [4]: 825 nM

B6: HePTP: HePTP (residues 15–339), hematopoietic protein tyrosine phosphatase (protein, UniProt P35236 15-339, looked up, fragment)
chain: TLSLGAAMTQPPPEKTPAKKHVRLQERRGSNVALMLDVRSLGAVEPICSVNTPREVTLHFLRTAGHPLTRWALQRQPPSPKQLEEEFLKIPSNFVSPEDLDIPGHASKDRYKTILPNPQSRVCLGRAQSQEDGDYINANYIRGYDGKEKVYIATQGPMPNTVSDFWEMVWQEEVSLIVMLTQLREGKEKCVHYWPTEEETYGPFQIRIQDMKECPEYTVRQLTIQYQEERRSVKHILFSAWPDHQTPESAGPLLRLVAEVEESPETAAHPGPIVVHCSAGIGRTGCFIATRIGCQQLKARGEVDILGIVCQLRLDRGGMIQTAEQ
Kd (ERK2 [1]): 371 ± 40 nM | tighter binding to ERK2 than to p38α (ERK2 [1]): ~7 times | Kd (p38α [3]): 2570 ± 650 nM | maximum dimension (Dmax) (ERK2 [6]; [8]): 110 Å | radius of gyration (Rg) (ERK2 [6]; [8]): 33.3 Å | shape of the complex with ERK2 (in words) (ERK2 [6]; resting-state complex, SAXS): highly extended in solution

B7: STEPCAT: STEPCAT (residues 244–539), catalytic domain of STEP (protein, UniProt P54829 244-539, looked up, fragment)
chain: GSNVSLTLDMCTPGCNEEGFGYLMSPREESAREYLLSASRVLQAEELHEKALDPFLLQAEFFEIPMNFVDPKEYDIPGLVRKNRYKTILPNPHSRVCLTSPDPDDPLSSYINANYIRGYGGEEKVYIATQGPIVSTVADFWRMVWQEHTPIIVMITNIEEMNEKCTEYWPEEQVAYDGVEITVQKVIHTEDYRLRLISLKSGTEERGLKHYWFTSWPDQKTPDRAPPLLHLVREVEEAAQQEGPHCAPIIVHCSAGIGRTGCFIATSICCQQLRQEGVVDILKTTCQLRQDRGGMI
modifications: catalytic domain
notes: STEPCAT (residues 244–539), catalytic domain of STEP
interaction with p38α by NMR (in words) (p38α [7]): interacts directly with p38α
